Results: PMC3903573, “Effects of an Anticarcinogenic Bowman-Birk Protease Inhibitor on Purified 20S Proteasome and MCF-7 Breast Cancer Cells” (PLoS ONE, 2014)

Tests used:
[1] = molecular target: the molecule itself; experiment: dynamic light scattering; BTCI alone, 15 µM, pH 7.5; hydrodynamic diameter 4.5 nm
[2] = molecular target: 20S proteasome purified from horse erythrocytes (horse); experiment: enzyme inhibition assay (fluorogenic substrates, Morrison equation); 20S proteasome 2.0 µg/mL with BTCI 2.0 to 30.0 µg/mL and 62.5 µg/mL fluorogenic substrate; 20.0 mM Tris-HCl pH 7.5, 1.0 mM EDTA, 1.0 mM NaN3, 1.0 mM DTT; room temperature, 60 min; Ki fitted with GRAFIT; settings: both partners purified

B1: Black-eyed pea Trypsin/Chymotrypsin Inhibitor (natural protein, Vigna unguiculata (Cowpea), UniProt P17734 1-83, looked up)
chain: SGHHXXSTXXASXSSKPCCRXCACTKSIPPXCRCSXVRLNSCHSACKSCACTFSIPAXCFCGXIXXFCYKPCKSSHSXXXXWN
modifications: X not resolved here
notes: 83 amino acid residues, seven disulfide bonds, 9.1 kDa; reactive sites Lys26 (trypsin) and Phe53 (chymotrypsin); By DLS a trimer at 15 µM and pH 7.5; also called BTCI; source: isolated from Vigna unguiculata (Cowpea) seeds, purified as previously described [29]
[1]
  stoichiometry N: 3
[2]
  KI or Kd, caspase-like site: 1400 nM
  KI or Kd, chymotrypsin-like site: 700 nM
  KI or Kd, trypsin-like site: 100 nM
